The values below are quoted from earlier work in article PMC3567247.

Targets include TACI (Homo sapiens) (UniProt O14836); CD40L (Homo sapiens) (UniProt P29965); CD40 (Homo sapiens) (UniProt P25942); Im9 (Escherichia coli) (UniProt P13479); Ribonuclease Inhibitor (UniProt P13489); BPTI (Bos taurus) (UniProt P00974).
In data set [1] the target is BCMA (Homo sapiens) (UniProt Q02223). Kind of data set: surface plasmon resonance.
Data set [2] has as its target BR3 (Homo sapiens) (UniProt Q96RJ3). Kind of data set: surface plasmon resonance.
Data set [3] concerns the target BCMA (Homo sapiens) (UniProt Q02223).
Data set [4] addresses BR3 (Homo sapiens) (UniProt Q96RJ3).
In data set [5] the target is Barstar (Bacillus amyloliquefaciens) (UniProt P11540).
For data set [6], the target named is Ribonuclease Inhibitor (Sus scrofa) (UniProt P10775).

Read-outs that look alike come from different tables or passages of the source. Some results are limits rather than exact numbers.

BCMA (Homo sapiens), sequence (Q02223 whole entry): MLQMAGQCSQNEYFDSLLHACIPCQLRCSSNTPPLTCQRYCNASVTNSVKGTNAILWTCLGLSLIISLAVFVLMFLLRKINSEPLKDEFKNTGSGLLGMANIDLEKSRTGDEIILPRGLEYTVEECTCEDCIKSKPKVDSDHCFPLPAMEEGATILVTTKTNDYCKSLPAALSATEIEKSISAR
Ribonuclease A, sequence (P61823 27-150): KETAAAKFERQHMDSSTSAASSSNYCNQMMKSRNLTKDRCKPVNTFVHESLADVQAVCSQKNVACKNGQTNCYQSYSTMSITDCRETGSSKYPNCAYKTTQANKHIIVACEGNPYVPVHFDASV
APRIL, sequence (O75888 105-250): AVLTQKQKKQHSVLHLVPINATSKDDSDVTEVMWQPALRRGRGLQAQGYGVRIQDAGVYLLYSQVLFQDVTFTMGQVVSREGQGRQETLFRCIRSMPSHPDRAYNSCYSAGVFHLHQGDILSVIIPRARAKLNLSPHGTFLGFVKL
BR3 (Homo sapiens), sequence (Q96RJ3 whole entry): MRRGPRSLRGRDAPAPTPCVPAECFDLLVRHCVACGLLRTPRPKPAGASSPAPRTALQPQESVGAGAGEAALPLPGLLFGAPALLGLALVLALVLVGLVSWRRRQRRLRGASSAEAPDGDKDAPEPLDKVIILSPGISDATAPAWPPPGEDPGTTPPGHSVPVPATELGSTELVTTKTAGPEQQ
Barstar (Bacillus amyloliquefaciens), sequence (P11540 2-90): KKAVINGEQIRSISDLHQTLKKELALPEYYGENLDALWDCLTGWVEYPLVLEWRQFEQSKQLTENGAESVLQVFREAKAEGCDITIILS
Im9 (Escherichia coli), sequence (P13479 whole entry): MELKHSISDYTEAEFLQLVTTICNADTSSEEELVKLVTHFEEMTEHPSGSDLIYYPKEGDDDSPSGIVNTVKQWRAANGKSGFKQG
Colicin E9 nuclease, sequence (P09883 449-582): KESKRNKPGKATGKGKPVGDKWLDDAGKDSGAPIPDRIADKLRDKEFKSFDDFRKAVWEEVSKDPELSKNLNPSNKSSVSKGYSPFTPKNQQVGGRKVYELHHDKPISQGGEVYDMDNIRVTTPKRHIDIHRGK
CD40, sequence (P25942 21-277): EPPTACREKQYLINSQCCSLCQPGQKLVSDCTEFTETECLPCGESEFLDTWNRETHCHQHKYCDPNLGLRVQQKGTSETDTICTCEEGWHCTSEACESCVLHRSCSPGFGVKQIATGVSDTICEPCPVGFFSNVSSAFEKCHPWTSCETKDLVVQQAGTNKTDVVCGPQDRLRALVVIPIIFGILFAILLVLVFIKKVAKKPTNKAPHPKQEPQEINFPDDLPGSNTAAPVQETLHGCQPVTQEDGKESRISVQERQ
CD40 (Homo sapiens), sequence (P25942 21-277): as above
CD40L (Homo sapiens), sequence (P29965 113-261): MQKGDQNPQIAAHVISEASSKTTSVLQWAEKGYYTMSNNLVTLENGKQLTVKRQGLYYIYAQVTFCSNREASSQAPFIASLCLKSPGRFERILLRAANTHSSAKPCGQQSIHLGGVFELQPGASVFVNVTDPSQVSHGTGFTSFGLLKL
CD40L, sequence (P29965 113-261): as above
Ribonuclease Inhibitor (Sus scrofa), sequence (P10775 whole entry): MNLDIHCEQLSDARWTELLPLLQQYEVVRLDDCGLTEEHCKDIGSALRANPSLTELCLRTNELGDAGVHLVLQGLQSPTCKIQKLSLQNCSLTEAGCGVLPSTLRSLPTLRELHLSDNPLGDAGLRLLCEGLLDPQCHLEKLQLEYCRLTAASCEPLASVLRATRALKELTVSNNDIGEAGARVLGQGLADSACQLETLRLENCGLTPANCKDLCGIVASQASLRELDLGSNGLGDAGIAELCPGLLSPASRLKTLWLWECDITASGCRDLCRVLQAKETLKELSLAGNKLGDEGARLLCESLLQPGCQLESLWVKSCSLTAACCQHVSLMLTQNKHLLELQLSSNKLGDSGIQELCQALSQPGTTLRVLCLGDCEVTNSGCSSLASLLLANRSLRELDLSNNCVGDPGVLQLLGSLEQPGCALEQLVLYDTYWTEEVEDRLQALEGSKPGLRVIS
Barnase, sequence (P00648 48-157): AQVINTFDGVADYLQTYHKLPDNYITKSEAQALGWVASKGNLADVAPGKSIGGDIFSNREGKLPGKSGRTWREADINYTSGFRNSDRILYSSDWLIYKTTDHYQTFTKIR
TACI (Homo sapiens), sequence (O14836 whole entry): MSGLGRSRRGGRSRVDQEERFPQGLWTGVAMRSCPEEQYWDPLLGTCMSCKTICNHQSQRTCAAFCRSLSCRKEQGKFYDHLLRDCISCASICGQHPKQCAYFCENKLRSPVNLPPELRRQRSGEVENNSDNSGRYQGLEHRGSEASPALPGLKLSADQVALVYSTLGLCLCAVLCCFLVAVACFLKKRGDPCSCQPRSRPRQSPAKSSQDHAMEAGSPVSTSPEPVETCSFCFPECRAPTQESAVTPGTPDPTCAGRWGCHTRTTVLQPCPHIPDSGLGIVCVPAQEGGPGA
Ribonuclease Inhibitor, sequence (P13489 2-461): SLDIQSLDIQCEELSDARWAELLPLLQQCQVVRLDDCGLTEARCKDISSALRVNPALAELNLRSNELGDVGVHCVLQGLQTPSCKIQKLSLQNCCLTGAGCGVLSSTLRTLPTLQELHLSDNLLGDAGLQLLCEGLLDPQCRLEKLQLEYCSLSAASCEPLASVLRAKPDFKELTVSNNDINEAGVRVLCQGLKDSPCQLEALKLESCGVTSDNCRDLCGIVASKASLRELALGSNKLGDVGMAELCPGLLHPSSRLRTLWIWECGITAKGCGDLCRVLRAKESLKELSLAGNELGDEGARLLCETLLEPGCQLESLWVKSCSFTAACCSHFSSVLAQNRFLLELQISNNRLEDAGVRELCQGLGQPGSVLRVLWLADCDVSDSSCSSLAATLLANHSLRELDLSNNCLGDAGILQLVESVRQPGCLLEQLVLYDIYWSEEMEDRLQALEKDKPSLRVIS

For the substance APRIL (from UniProt O75888), the Kd with BCMA (Homo sapiens) [1] was 15 nM; with BR3 (Homo sapiens) [2], greater than 3000 nM.

Consider BAFF (from UniProt Q9Y275), for which the results for the Kd with BCMA (Homo sapiens) [3], with TACI (Homo sapiens) and with BR3 (Homo sapiens) [4] were 1500 nM, 13 nM and 15 nM, respectively.

As to Barnase (from UniProt P00648), in data set [5], the Kd is 0.0002 nM.

Turning to CD40 (from UniProt P25942), in the data set with CD40L (Homo sapiens), the Kd was 13000 nM.

With CD40L (from UniProt P29965), in the data set with CD40 (Homo sapiens), the Kd is 13000 nM.

As to “Colicin E9 nuclease (from UniProt P09883)”, the Kd with Im9 (Escherichia coli) was 0.024 pM.

Regarding Ribonuclease A (from UniProt P61823), the equilibrium dissociation constant (Kd) (with Ribonuclease Inhibitor; in data set [6]) was 0.059 pM throughout.

trypsinogen (from UniProt P00760): in the data set with BPTI (Bos taurus), the Kd is 0.06 pM.
